Values quoted from earlier work in paper PMC10793677.
pKd: −log10 of the molar value.

Tests used:
CD73 (Homo sapiens) = CD73 (Homo sapiens) (UniProt P21589); test: flow cytometry and SPR
CD73 (Mus musculus) = CD73 (Mus musculus) (UniProt Q61503); test: flow cytometry and SPR
Chain of UniProt Q61503 (Q61503 29-551): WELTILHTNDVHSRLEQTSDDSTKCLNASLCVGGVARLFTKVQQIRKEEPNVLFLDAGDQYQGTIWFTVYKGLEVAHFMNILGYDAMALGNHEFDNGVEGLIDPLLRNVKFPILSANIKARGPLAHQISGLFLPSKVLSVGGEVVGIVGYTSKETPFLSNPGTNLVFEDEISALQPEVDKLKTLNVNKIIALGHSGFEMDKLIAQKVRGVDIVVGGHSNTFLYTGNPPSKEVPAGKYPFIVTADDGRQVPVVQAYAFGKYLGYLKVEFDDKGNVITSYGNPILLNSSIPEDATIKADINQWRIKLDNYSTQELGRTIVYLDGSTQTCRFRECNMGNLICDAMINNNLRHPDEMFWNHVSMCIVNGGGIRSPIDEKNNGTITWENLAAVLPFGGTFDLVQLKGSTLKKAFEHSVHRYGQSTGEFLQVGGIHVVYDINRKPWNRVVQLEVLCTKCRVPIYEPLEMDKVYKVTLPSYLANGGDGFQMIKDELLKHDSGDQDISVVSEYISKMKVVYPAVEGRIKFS

Chain of UniProt P21589 (P21589 27-549): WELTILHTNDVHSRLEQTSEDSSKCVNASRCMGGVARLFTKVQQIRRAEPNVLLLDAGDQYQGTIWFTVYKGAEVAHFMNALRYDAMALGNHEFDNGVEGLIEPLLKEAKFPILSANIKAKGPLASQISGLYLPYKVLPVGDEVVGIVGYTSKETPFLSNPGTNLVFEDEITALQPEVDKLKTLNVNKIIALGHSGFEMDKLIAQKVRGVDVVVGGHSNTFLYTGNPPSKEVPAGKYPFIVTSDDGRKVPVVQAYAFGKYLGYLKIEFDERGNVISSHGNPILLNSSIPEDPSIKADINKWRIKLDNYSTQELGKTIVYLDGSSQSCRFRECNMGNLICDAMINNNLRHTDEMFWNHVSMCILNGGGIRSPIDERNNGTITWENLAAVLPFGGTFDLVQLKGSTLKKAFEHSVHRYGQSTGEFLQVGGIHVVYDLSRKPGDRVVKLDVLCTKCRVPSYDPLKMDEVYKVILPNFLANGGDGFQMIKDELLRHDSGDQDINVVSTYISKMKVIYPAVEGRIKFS

## Oleclumab
CD73 (Homo sapiens)
  pKd: 9.81
CD73 (Mus musculus)
  pKd: 9.95
